Results on one substance are retold here after US20200024330A1.

Common to all, as to test: cell-based or functional assay
For assay [1], the target named is HIV-1 93UG077 envelope glycoprotein (Env) on pseudovirus (HIV-1).
Assay [2] concerns the target HIV-1 JRCSF envelope glycoprotein (Env) on pseudovirus (HIV-1).
The target in assay [3] is HIV-1 94UG103 envelope protein (Env) on pseudovirus (HIV-1).
The target in assay [4] is HIV-1 Env of pseudovirus SC422661.8 (Acute), clade B (HIV-1).
Assay [5] concerns the target HIV-1 94UG103 envelope glycoprotein (Env) on pseudovirus (HIV-1).
The target in assay [6] is HIV-1 93UG077 envelope glycoprotein (Env) (HIV-1).
Assay [7] deals with HIV-1 MGRM-C-020 Env (HIV-1).
Assay [8] concerns the target HIV-1 Env of pseudovirus MGRM-Chronic-B-001, clade B (HIV-1).
In assay [9] the target is HIV-1 MGRM-C-002 Env (HIV-1).
Assay [10] addresses HIV-1 Env of isolate MGRM-D-001 (clade D) (HIV-1).
The target of assay [11] is HIV-1 MGRM-A-002 envelope glycoprotein (Env) (HIV-1).
The target in assay [12] is HIV-1 MGRM-F1-022 Env (pseudovirus) (HIV-1).
Assay [13] has as its target HIV-1 Env of pseudovirus 92BR020, clade B (HIV-1).

For orientation: IC50 means the midpoint of a concentration-inhibition curve. Higher therefore signals weaker potency in that assay. As to b12 (antibody), the IC90 (pseudovirus neutralization) in assay [1] was > 50 µg/mL; in assay [2] it was 1.17 µg/mL; in assay [5] it was 47.3 µg/mL. Moreover, the neutralization IC50 in assay [3] was found to be 3.54 µg/mL. The IC50 (µg/ml), pseudovirus neutralization is 6.11 µg/mL in [4]; 47 µg/mL in assay [6]; 0.75 µg/mL in assay [8]; > 50 µg/mL in assay [10]; > 50 µg/mL in [11]; > 50 µg/mL in [12]. Moreover, the IC50 (µg/ml), pseudovirus neutralization in assay [13] is > 50 µg/mL. Further, the IC50 in assay [7] and in [9] was > 50 µg/mL throughout.
